Measured values: US20230248855A1 (ACTINIUM PHARMACEUTICALS, published 2023)

Target: T1, human recombinant HER3 (human, UniProt P21860 20-643)
T1 construct: Plate-coated recombinant protein in the ELISA
Test: ELISA, plate coated with human recombinant HER3, anti-human IgG F(ab')2-HRP detection
Procedure: A secondary antibody (Goat Anti-human IgG F(ab′)20-HRP) was added and incubated for 30 min on ice followed by color development using […] for 10 min.

T1 sequence (P21860 20-643 limits assumed): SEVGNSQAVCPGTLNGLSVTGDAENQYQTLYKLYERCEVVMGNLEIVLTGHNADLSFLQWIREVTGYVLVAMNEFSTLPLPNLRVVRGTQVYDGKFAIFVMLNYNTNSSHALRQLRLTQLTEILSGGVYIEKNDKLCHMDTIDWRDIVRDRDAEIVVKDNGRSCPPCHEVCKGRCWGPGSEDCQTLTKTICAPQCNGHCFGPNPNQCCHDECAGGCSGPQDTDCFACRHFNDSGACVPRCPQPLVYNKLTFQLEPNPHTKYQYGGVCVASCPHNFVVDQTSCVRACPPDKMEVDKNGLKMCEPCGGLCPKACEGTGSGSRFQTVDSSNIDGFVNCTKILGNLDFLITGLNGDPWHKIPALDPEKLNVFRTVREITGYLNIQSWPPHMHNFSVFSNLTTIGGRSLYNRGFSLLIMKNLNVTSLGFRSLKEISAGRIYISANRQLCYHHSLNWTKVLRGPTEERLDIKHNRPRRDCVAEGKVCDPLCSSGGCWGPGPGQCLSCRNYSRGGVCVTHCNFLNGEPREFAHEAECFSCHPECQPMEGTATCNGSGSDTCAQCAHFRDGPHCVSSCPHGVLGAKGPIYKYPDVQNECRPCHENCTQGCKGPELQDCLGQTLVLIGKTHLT

Row | EC50 [ng/mL] | Binder
1 | 1.7 | 225Ac-HER3-ARC (Ac225 labeled DOTA-conjugated anti-HER3 monoclonal antibody) (antibody, human IgG1, kappa, V domains shown, DOTA chelator conjugated using p-SCN-Bn-DOTA and chelating Actinium-225; sites and chain not stated) VH: QVQLVESGGGLVKPGGSLRLSCAASGFTFSDYAMSWIRQAPGKGLEWVSTISDGGTYTYYPDSVKGRFTISRDNAKNSLYLQMNSLRAEDTAVYYCAREWGDYDGFDYWGQGTLVTVSS VL: DIQMTQSPSSLSASVGDRVTITCRASQEISGYLSWYQQKPGKAPKRLIYAASTLDSGVPSRFSGSGSGTEFTLTISSLQPEDFATYYCLQYDSYPYTFGQGTKLEIKR
2 | 2.2 | anti-HER3 IgG monoclonal antibody consisting of heavy chain SEQ ID NO:77 and light chain SEQ ID NO:78 (unmodified) (antibody, V domains shown, IgG, detected with an anti-human IgG secondary antibody; also called unmodified anti-HER3 antibody; unmodified anti-HER3 mAb) VH: QVQLVESGGGLVKPGGSLRLSCAASGFTFSDYAMSWIRQAPGKGLEWVSTISDGGTYTYYPDSVKGRFTISRDNAKNSLYLQMNSLRAEDTAVYYCAREWGDYDGFDYWGQGTLVTVSS VL: DIQMTQSPSSLSASVGDRVTITCRASQEISGYLSWYQQKPGKAPKRLIYAASTLDSGVPSRFSGSGSGTEFTLTISSLQPEDFATYYCLQYDSYPYTFGQGTKLEIKR
